Results reported in article PMC2883946.

Tests used:
14-3-3β = 14-3-3β (UniProt Q9CQV8); experiment: FLAG IP, 14-3-3 isoform immunoblot; conditions: reference: FLAG-AS160 wild type; sites S318,T568,S588,T642,S751
14-3-3ε = 14-3-3ε (UniProt P62259); experiment: FLAG IP, 14-3-3 isoform immunoblot; conditions: reference: FLAG-AS160 wild type; sites S318,T568,S588,T642,S751

binding against the reference (14-3-3β): weaker
binding against the reference (14-3-3ε): weaker
Substance: FLAG-AS160 (from UniProt O60343) FLAG-AS160 5P
